Measurements taken from paper PMC8910563, “BdGUCD1 and Cyclic GMP Are Required for Responses of Brachypodium distachyon to Fusarium pseudograminearum in the Mechanism Involving Jasmonate” (International Journal of Molecular Sciences, 2022).

Substrate: Nc1ncnc2c1ncn2[C@@H]1O[C@H](COP(=O)(O)OP(=O)(O)OP(=O)(O)O)[C@@H](O)[C@H]1O
Assay: adenylyl cyclase assay, cAMP by LC-MS/MS
Format: biochemical, Brachypodium distachyon

B1: BdGUCD1 (Brachypodium distachyon) (protein)
chain: MVLRTLGVDCCDGIADLGKLCHTTSIWTVDLAYLLHKFRVSFSFFTVTIGANPQYSAETFYREQLQEDIDRVDELFGKAVDAGISIQCRSISAYDIAFLLLSGHCIAIALVDKSKLISSWMNDVHDVQQFNEDSDYMGHYVVICGYDADACEFEIRDPASSRKREMVPMKSLEEARKSFGTDEDILLVSLTGKNGMKLSRKLPDSSL
notes: truncated fragment Met62-Leu268 (207 residues; full length 268 aa), N-terminal GST fusion kept (pGEX-6P-2), ~55 kDa, from E. coli BL21(DE3)pLysS
Work on B1 yielded a Km of 320 µM.
